The series is described as follows: label from the status in PepcDB records.

With “MPRCIIYVDFPCWHPVRQRPLRVRGRFRTFVRSHAFPSPPVSDPSPSSSDASPPDALVIIPTYNEADNIGPVIDQVLEQSPPLSVLVVDDNSTDGTADLVRSKKTDALDRVHLIERSGKLGLGTAYLRGFRYALAQDYTYICEMDADRSHDPNDLPRLIAPVREGEVALAIGSRYVEGVRVINWPLSRLVLSYGAGVYTRAITRLPLLDVTAGFKCFHRRVLETLPLDRVNSDGYAFQVEMHYRTWRAGFPFTEVPVVFTERTEGESKMRREIVVEAALKVWELRLQDLLGRL”, the protein production entry is “failed”. Under “MPRLTTRALTRCLLATLALLCIALPALAAAPITPLRVMSFNVRVPVDTDGDKRWQARRGAMVSVIKQTHPDVFGTQELVSEQAGYLAAQLPNYRWFGQGRRGDDSDEHMGVFYDTRTLNVVESGNFWLSDTPEVAGSITWGNVLPRMVTWALFERRSDKRRFYLFNTHFPYRDEDEPAREHSARLILSRIAQLPADIPVVLTGDFNSDPDKITYPTLTAVLGDARARAPKRSGPENTFQDFSTHPTRRIDWILFRGLTPTQFTTLDDRPGGVLPSDHYPVLAEFAWPR” stands “failed”; under “MPRNNKTSLIQKIASQAYATFTNCSSSAIEDNNKVFLEHQADLVALLSDIRAADLKIAPPTKVSTSSPSVPPVTYMHICETDVFSMGVFLLKSGASIPLHDHPGMHGMLKVLYGKVSIRCYDKLDKAESDTERHFDPPLLAFQGDDVRRAALRSSGQFSELSGPCVLSPFKDNLHEIDAVDGAAAFLDILAPPYDPDDGRDCHYYRVLQTAGKKSEQSGDDEAWLLEIPQPDDFWCGGEPYPGPEVTI”, “not failed”; under “MPRPLVDEVRFLRSWIEKPLHMGAVMPSGKLLARTMARYVDIQSDGPVIELGPGTGAITNALVEHGVDQKRLVLLEFDPGFCALLRERFPLAKVVQGDAYRLRDSLWDALEIPATAVVSGLPLVTKPMLTRMKLIRDAFTLLEPGAPFVQFTYSVAPPIPKSLPGVSTEGSERIWMNVPPARVWVYRKRLEHHHHHH”, “not failed”. Turning to “MPSEVTEEFIIIIAVVLIGLVLFGFVTSYFIPHEIFSLAQQQASSISSSTTVSVGPLIFNSGSASTVIEAYNPAISGNITLIVFPEPSYLQQDVGLVTPQSPPQFSVYLSNEKLAKSFTISIPIYDVNGRIIYDSQITAYTVPFNTPVTITVNGVGGSNYILIVWVLYNSNGYWFRIGYTFTGVPST”, the protein production result was “failed”. For “MPSFLEISPDKLNRLIGTPGAPRIIDVRTDEDFALDPRLVPGSIRRDHAEVASWADSIDADAVVVVCHRGAKLSHGVAAYLRHAGIEAESLAGGFEAWAAAGPAVPEAKLEHHHHHH”, the protein production result is on record as “failed”. As for “MPSFRRSVAAVVTALPLIAGGCAHRPAVETASPEAVQWNLSDGAETTFYYLMLDQAARSDNTRDAIEAIENLIRLSPTARVYNDSGSFLLSRKEPDLARDILTRGVAAHPDDLGLTLLLAESYLDLDRNDEAIALLRAYNAKHPKDDEARQELAQLLVKTRRYEEADKLILSIGETSRTSLLRYYHARALMGLNRLTEATAQLRKAVKASPDFLEAWAELAYVYELRKNYVEAEKIYEQILALDEGNQDVWLRLVAINIKLNNPVKAYELARQGPETFGFMLTAATLFLDDRFFEQAEGLLLAVKDSPGAPEEVYFFLAVLAYEGQRDTDATLSWLLEVRPTNKYYDRALRLRSQLLYEKGDLEAALRTAREGRETFPEQRDFREMEAQLLVNMGRSEEALRVIDKAADRWPDDSGLLFMRALILDDRGAKDAAFAAMEEVIKASPNHAQALNYVGYTLAEQERDLTRAVSLLERANTLSPDNPFILDSLAWAYFKAGRIPEAWKAISRAIELNAPDPIIWEHYGDIATAMGQKNTARRAYRKALSMNPQNPDAIKAKLDKK”, the entry is “failed”; as for “MPSMSPIDKSWSTCPYGFLDGTHQELRRIFHLWRCKKYRSQFTEEKKATYEEKLAASELFKDKKALYPSSVSQPFKGDYVEITKNPKYQKLNSLVEDKVLLADVVSKINRANGKGTPRIFLLTKKCLVLADQKTGQVKASVPLPDLSSVFVSTQNDGFFALKLREGATSAAKGDYLLSSDRLIEIITKLYCTGAASAERNQIKIDISDEFLVQFKQDKVCVKFIQGTPKNSNSVSCKRKNNRLLEVSVPSP”, “failed”; as for “MPSQDWERSVLGCSMQVGQGWCCVDLSDISCVQDVAKEVLDCYGCVDILINNASVKVKGPAHKISLELDKKIMDANYFGPITLTKVLLPNMISRRTGQIVLVNNIQAKFGIPFRTAYAASKHAVMGFFDCLRAEVEEYDVVVSTVSPTYIRSYRASPEQRNWETSICKFFCRKLAYGVHPVEVAEEVMRTVRRKKQEVFMANPVPKAAVFIRTFFPEFFFAVVACGVKEKLNVPEEG”, “failed”. For the sequence “MPSQLGITLKQVRLQQHLSQATVATGICAQSMLSAIENGKYTPNATLLMRLCQRLKISLDQLSLAENFTISDLEQINDRLAKLCNHHRYADLREFLLTDAVQARLTTDVQLAAYYYYLGITDFQLGHLTDAQQQFQLALASAPAQHRTTLSRLCWMSLALIHASRQQANASEEAMTQAVTQLKTAPYEANLNSLFYLAAVSHLKLNQLTIAAQWLERGIDFATDHDSHYMLANDYHLLAVIASRSEQIDQQRTAQATEHVLTTLFHESIYDRLD”, the protein production result is “failed”.

In the case of “MPSSDLRAFVVRVVIVLALVAYAWLLWALSGLLLMVFGAVVVAVLLRALASWVTRYTPLSDGMALGLVVVVVAVGFTALLWLFGSQLATELGALQRTLPQAWARFHDWVAAGPLGPALEELTRQAPARVSNLAPRAGAFALSITGGVANLFLVLAGAVYLAAQPQLYRRGVLLLFPVQVRATMDDAVRASGTALRLWLRGQLLAMVVVGALTGLGLWALGIPGALALGIIAGLLDFVPIVGPILAAIPAILLGFTVSPQMALATAALFVVVQQIEGNILLPLIQQRTVDLPPVLLLFSLFGIGTLLGPAGVLLAAPLTVVAFVLVKRLYVQEALHTPTSIPGQKHH”, the protein production entry is reported as “failed”. As for “MPSSSASLIPSLRQASRQMVRELGFMQATLAATDYPPSAVHALLEIGQGNALTAGDLVTLLGLEKSSVSRLVRKLVDAGEISEQAHDQDARSKKLQLSARGRQTLAGIDRFAQAQVAAALAHLSPAQQRSACAGIADYARALRAVRLGDVPEPPERCSIARGYRPGVIGRIAEMHARYYADLAGFGQPFESLVARDMAELMGRLHNPRNEVWVALQGERIVGSIAIDGEGEGGEALLRCFILDEAARGQGLGRRLLAEALGFCDQWGFAATRLWTFKGLDAARALYEEQGFVLVQEQEGEQWGAPVTEQCFVRARVAQRDTIR”, the entry is “failed”; as for “MPTATDARGHTVTLDHRPRRILSLVPSQTELLAHLDLADEVVGITRFCERPEHWRSEKAIVGGTKQVDFDTVRDLDPDLVLANHEENTAEDVETLDEIAPVFVTEVKTVEDALGMIRTVGTLTETSDQTSTLVGKIISRFESLPDFTSLRAAYLIWRDPYMTIGNDTFIHDVMHWGGLENAYGDQTRYPDVTIADLAEQDLDVVLCSSEPFPFHEKDAFTADLREALPDTSVEIVDGQPFSWYGPRLLDTPSYLKTLRERLPTPAPRR”, “failed”; as for “MPTFDHGNLSLGELELTVLYDEERYDIVEQTETVQVDLEGPRGVLTVFRFARPSYEVFVDLTEAGEGSHTVDVEHRGFPGDLAVTVEPRMARVQLEERQTVSVPVTVEMINLEHHHHHH”, “not failed”. With “MPTLQLFIYIIGFLFLMYMAWSLWTEKPSNIEEIEPMSAKKQILFALSVSLLNPHAIMDTVGVIGTSASVYDGYDKVVFSLATISVSWIWFVFLAILGRITGKIDKSGKYIVILNKVSSVIVIIVGLIILKNIVGILS”, the protein production entry is recorded as “failed”.

“MPTPTYPKASLIIRERGLPKREVLLSPDRQWTIGRQLDCSIRLTDAYVSRLHAVINAFLFRGQPLYFIRDAHSRNGTFLNGFPLQHSTLLHHEDVIGVGTTLLVFYYPDMFREISLDECPELTKGSTDSLPWRS”: the protein production result is on record as “failed”. Under “MPTTKQLKDTELPLNFFEHSSLETIELFIQHLTEAMILVNANGFIRSCNQRSAELLDCPQVSLKGQDWRNFLTEHHQARYDNLLSHDVQLGTNCGQPVQHPAQETTLICASGKAKDVELSISYIPGHEPMFVMVMHDLTHHKAELEHHHHHH” stands “not failed”; under “MPTVFIFLTAVYAGLGAFAWHCQQQGRGRDYPWKTELPVLGAALTVHGAALLMPVIQDKIIIMGFGYSGSLIVWMMLFIYFAGSFFYPLRGVQLLLYPCAALMLLSGLVFPGKFSGYEITDFPFMLHIGTSLLAYGLFGIATLLSVLSLLLHRSLHRRNFSKLAGFLPSLLSLEKLMFQAMWAGFILLTYSVVSGTFFAEAVFGKPMTFTHKTVFGILSWLIYGGLLLKHSMTAWRGKKAAVWTIIGFVSLMIAYMGSKFVLEIILKR”, “failed”. As for “MPTYLFLSSGNVLADRRYDFARELLARGEAEAAADLLAQAVELAPDFTSAWFALGEIRQDRLGNREGAVDAFRRARAADPRDRHGAGLRLMRLGAADLDAMSPAYIGALFDQYAPRFDKSLVEDLGYRGPALLFEAVREVCETTGRAMAFRRAIDLGCGTGLVGRAFAPIISEIIGFDLAPQMIERARATGVYGRLAVTDLVQGLANEPPASAELILAADVLIYIQDVAPLLHEAARVLPPGGLLAVTAETHAGDGVVLTAGLRFAQAESYLRAELERAGLVVALLQYASARNEKHTPLPGLVVVAFRPNG”, the entry is “failed”; as for “MPTYSAMANTDGGIVILGVRERKGQFEVAGIENPDKLRTELFNHLNNRQKVSVNLLRDEDVRAWPVEGKTLLVVEIPRARRQQRPVYLRGNPLGGHTYRRLHEGDRPLEHHHHHH”, “failed”; as for “MPVCWSHRSDSRPASNATPLSGPVGWAHQAAPLQRLLHGTAPVILSPALEPPQHKDPAMPKLASIHLYPIKSTAGMPLTRALVTEEGLQGDRRYMVVKPDGSFITARTHPQLQQVVATPIEGGLQLRYPGLDPLILQEREFSRTPRATGVWSDSFSALQTQPQADQWLSQVAGEPVQLLWLGEESARFREKTGTRVSFADGYPLLLISQASLEDLNLRSDALHQMSQFRTNLVASGTLPFEEDGWKRIRIGEVEFRVAKPCSRCIMTTVEPGTDRFNALKEPLATLTRYRRGEDGEVYFGQNLVALNEGWIEAGSEIEVLERARAPVYPNAAPKKRELVCVAREPLARDLETFWFEAADGEPLPDYLPGQHLPISLDIGLGLRRERLQRRYTLSSTPERPERYSISVKKVGGGRISHWLHQQLQPGDRLLAAAPAGEFHLGTGRSLLLLSAGSGVTPMLSIARTLALRGELGDVHFMHLCRSEADIPAAGELHALAQQGMTLTLILSQPDTHWQGLKGRLGDDHLKQVKQLAEREVFICGPHGFMADAAARLVALGVPAERIRQESFGGAILSVARPHQAVQLRIGKQSFAGNNQGTVLDQAHKQGVDLPWSCRAGICGSCKQTLLEGEVDHPDAPAITAAERAEGKILTCCAVPLTDLVIK”, “failed”. Under “MPVDAKTKYKAKKIKIVFFDIDDTLRVKKTGYIPESIKAVFKGLKEKGILTGIATGRGYYGVVEEILDLEPDYFVTINGTYVINRKGEEIYNQPLAREVTEAFVAWCKEIGIAWGFAGKDKPVVSERSELIDDAIVPIYGICDVEPDFHLTNDVYQMWTFAENNGDLKLPEELAAHVRLVPWHEHSSDVVATGISKASGVGHVLEHENLTPVNAMMFGDGPNDKEIFDYVGLKIAMGNATPELKAKADYVTGTVEEDGIFNALEELGLVEKELHFPQLDLDTVEGPVATIKTNHGDLVIKLFPDHAPLAVTNFVNLAKSGYYDGVIFHRIIKDFMIQGGDPTGTGMGGESSFGGSFQDEFSEELYNLRGALSMANAGPDTNGSQFFIVQAPEIPYAKKELERGGWPAPIAEAYAENGGTPHLDRRHTVFGHLVDEASYKVLDEIANVEVGTQDKPLEEVVIETIEVTDLEHHHHHH” stands “not failed”.

The values above are taken from a protein production outcome set (Wang et al. 2014).
